From patent US20120122765A1, “COMPOUNDS AND RELATED METHODS FOR MANIPULATING PARP-1-DEPENDENT CELL DEATH” (priority 2010, published 2012) come the findings set out here.

The nature of data set [1]: FAD binding by spectrophotometric wave length scanning. Particulars: His-Pbm-AIF versus His-WT-AIF. How it is done:
Unless otherwise set forth herein, the determination of NADH Oxidase Activity and FAD binding of AIF in the various examples below was performed using the following materials and procedures. AIF's NADH oxidase activity was determined as previously described by M. Miramar et al. (J Biol Chem, 2001). In brief, the NADH oxidase activity was measured at room temperature in substrate solution containing 250 μM NADH in air-saturated 50 mM Tris-HCl, pH 8.0. The decrease in absorbance at OD340 nm was monitored right after the addition of recombinant His-tagged AIF into the substrate solution. In situ redox activity of recombinant His-tagged AIF was performed as previously described by J. Gagne et al. (Nucleic Acids Res, 2008). The AIF protein was separated on a 10% native gel and then the gel was briefly washed in distilled water. The gel was equilibrated in 2,2′-Di-p-nitrophenyl-5-5′-diphenyl-3,3′ (3-3′-dimethoxy-4-4′difenilen)tetrazolium chloride (“NBT”) solution for 20 minutes in the dark followed by the addition of 1 mM NADH to NBT solution to reduce NBT. FAD binding to AIF was monitored at 13 μM concentration of His-tagged AIF by wave length scanning ranging from 250-800 nm using Beckman Coulter DU800 UV/Vis spectrophotometer.
FAD binding of His-WT-AIF and His-Pbm-AIF was determined by spectrophotometric wave length scanning of purified proteins. […]

For another data set, the system named is PAR. As to the kind of experiment: nitrocellulose saturation binding experiments. Particulars: result in words. From the text:
Applicants thereafter repeated the experiments using both wild type and mutant AIFm peptides spanning only amino acids 567-592 instead of full length AIFm and obtained results consistent with those using full-length AIF. […] The double amino acid mutant Dm (corresponding to only amino acids 567-592 of AIF-Dm so as to consist of SEQ. ID NO. 16) bound PAR. […] Thus, it is preferred in embodiments of the invention when conducting genetic manipulations to convert at least three target basic amino acids in the PBM to hydrophobic amino acids.
The PAR polymer binding properties of the mutant Pbm-AIF was then measured using full-length recombinant His-WT-AIF and His tagged Pbm-AIF (“His-Pbm-AIF”) via a series of nitrocellulose saturation binding experiments. Similar experiments were also conducted for the shorter peptides Dm and Tm in comparison to WT. FIG. 10B through FIG. 10D comprise charts reporting data from these various experiments. With regard to the shorter peptides, Applicants determined that the binding affinity constant (“Kd”) and maximum binding capacity (“Bmax”) of these AIF mimetic peptides and the results are reported in the chart of FIG. 10B. […] FIG. 10D comprises a Scatchard plot (95% confidence interval) of the results.

The subject of a further data set is DNA. Description: DNA retardation assay. The class given is binding. Particulars: DNA (200 ng), 30 minutes. The protocol:
AIF binding-mediated DNA mobility retardation was performed as described by H. Cande et al. (Nat Struct Biol, 2002). Recombinant His-tagged AIF (10 μg or 25 μg) was incubated with 1 kb DNA molecular weight marker (obtained from Fermentas) for 30 minutes at room temperature and loaded on 2.5% agarose gel prestained with ethidium bromide (1 μg/ml). Mobility shift was visualized under the Alpha Innotech UV illuminator.
Further, a DNA retardation assay of His-WT-AIF and His-Pbm-AIF was conducted by incubating both with DNA (200 ng) for 30 minutes, using BSA as a negative control.

Data set [2] in a line: NADH oxidase activity of AIF. In kind it is biochemical. Particulars: compared to His-WT-AIF. How it is done:
Unless otherwise set forth herein, the determination of NADH Oxidase Activity and FAD binding of AIF in the various examples below was performed using the following materials and procedures. AIF's NADH oxidase activity was determined as previously described by M. Miramar et al. (J Biol Chem, 2001). In brief, the NADH oxidase activity was measured at room temperature in substrate solution containing 250 μM NADH in air-saturated 50 mM Tris-HCl, pH 8.0. The decrease in absorbance at OD340 nm was monitored right after the addition of recombinant His-tagged AIF into the substrate solution. In situ redox activity of recombinant His-tagged AIF was performed as previously described by J. Gagne et al. (Nucleic Acids Res, 2008). […] FAD binding to AIF was monitored at 13 μM concentration of His-tagged AIF by wave length scanning ranging from 250-800 nm using Beckman Coulter DU800 UV/Vis spectrophotometer.
Independent of its role in parthanatos, AIF has NADH (the reduced form of nicotinamide adenine dinucleotide) oxidase activity, binds to FAD (flavin adenine dinucleotide) and DNA, and causes nuclear condensation. To determine whether the triple amino acid mutation found in Pbm-AIF interferes with these properties, Applicants assessed the NADH oxidase activity, FAD-binding capacity, and DNA-binding capacity of full-length His-WT-AIF and His-Pbm-AIF. […]

B1: His-Pbm-AIF: His tagged Pbm-AIF (protein, UniProt Q9Z0X1 1-612, looked up, variant R588A K589A K592A)
chain: MFRCGGLAGAFKQKLVPLVRTVYVQRPKQRNRLPGNLFQQWRVPLELQMARQMASSGSSGGKMDNSVLVLIVGLSTIGAGAYAYKTIKEDQKRYNERVMGLGLSPEEKQRRAIASATEGGSVPQIRAPSHVPFLLIGGGTAAFAAARSIRARDPGARVLIVSEDPELPYMRPPLSKELWFSDDPNVTKTLQFRQWNGKERSIYFQPPSFYVSAQDLPNIENGGVAVLTGKKVVHLDVRGNMVKLNDGSQITFEKCLIATGGTPRSLSAIDRAGAEVKSRTTLFRKIGDFRALEKISREVKSITVIGGGFLGSELACALGRKSQASGIEVIQLFPEKGNMGKILPQYLSNWTMEKVKREGVKVMPNAIVQSVGVSGGRLLIKLKDGRKVETDHIVTAVGLEPNVELAKTGGLEIDSDFGGFRVNAELQARSNIWVAGDAACFYDIKLGRRRVEHHDHAVVSGRLAGENMTGAAKPYWHQSMFWSDLGPDVGYEAIGLVDSSLPTVGVFAKATAQDNPKSATEQSGTGIRSESETESEASEITIPPSAPAVPQVPVEGEDYGKGVIFYLRDKVVVGIVLWNVFNRMPIAAAIIADGEQHEDLNEVAKLFNIHED
modifications: full-length His tag
As to B1, the FAD binding properties result in data set [1] is “no significant difference”. Besides, the “PAR binding in saturation binding experiments” value in the data set with PAR was “much less (and virtually linear) binding”. For the same molecule, the DNA-binding properties result in the data set with DNA was “comparable”. Besides, the NADH oxidase activity entry in data set [2] is reported as “no significant change in NADH oxidase activity”.
